In patent KR20220001106A (dated 2022):
Residue numbers refer to the chain shown, from its start.

B1: RIgG1 (rabbit antibody made with SEQ ID NO 24 and SEQ ID NO 25) (antibody, V domains shown)
VH: QSVEESGGRLVTPGTPLTLTCTVSGIDLNRYSLTWVRQAPGKGLEWIGIVGGSGVTYYANWTKGRFTISKTSTTVDLKMTSLTTEDTATYFCARGSDRSAYAPDIWGPGTLVTISS
VL: ELDMTQTPSSVSAAVGGTVTINCQSSQSVYSNNYLAWYQQKPGQPPKLLLYQASKLASGVSSRFSGSGSGTHFTLTISGVQCDDAATYYCLGVYDDDADNAFGGGTELEILR
notes: Converted from scFv to whole IgG in vector pCEP6-WPRE, which carries an Fc part; The ELISA detected it with anti-hIgG-Fc; also called 2-19 (IgG form)
B2: Hz1 (humanized antibody made with SEQ ID NO 28 and SEQ ID NO 29) (antibody, V domains shown)
VH: EVQLVESGGGLVKPGGSLRLSCAASGIDLNRYSLTWVRQAPGKGLEWVGIVGGSGVTYYANWAKGRFTISRDSAKNSLYLQMNSLRAEDTAVYFCARGSDRSAYAPDIWGPGTLVTVSS
VL: DIQMTQSPSSLSASVGDRVTINCQSSQSIYSNNYLAWYQQKPGKPPKLLLYQASKLASGVPSRFSGSGSGTDFTLTISSLQPEDVATYYCLGVYDDDADNAFGGGTELEIKR
notes: Whole IgG from vector pCEP6-WPRE with an Fc part
B3: Hz2 (humanized antibody made with SEQ ID NO 30 and SEQ ID NO 31) (antibody, V domains shown)
VH: B2 VH with K13Q, A24V, V37I, G49A, S73D, A74S, S77T, F94Y, P111Q
VL: B2 VL with M4L, N22T, P45A, V85F, G104Q, E107K, L108V
notes: as for B2
B4: Hz2-F (antibody with SEQ ID NO 32 and SEQ ID NO 31) (antibody, human IgG1, L234A L235A, V domains shown)
VH: B2 VH with K13Q, A24V, V37I, G49A, S73D, A74S, S77T, F94Y, P111Q
VL: B2 VL with M4L, N22T, P45A, V85F, G104Q, E107K, L108V
notes: copies: 2 + 2
B5: Lu007 (SEQ ID NO 33, SEQ ID NO 34) (antibody, V domains shown)
VH: EVQLVESGGGLVQPGGSLRLSCAASGYDFTHYGMNWIRQAPGKGLEWVGWINTYTGEPTYAADFKRRFTFSLDTSKSTVYLQMNSLRAEDTAVYYCAKYPHYYGTSHWYFDVWGQGTLVTVSS
VL: DIQLTQSPSSLSASVGDRVTITCSASQDISNYLNWYQQKPGKAPKVLIYFTSSLHSGVPSRFSGSGSGTDFTLTISSLQPEDFATYYCQQYSTVPWTFGQGTKVEIKR
notes: Tested as a purified whole antibody, detected with anti-hIgG-Fc; also called variant ranibizumab; variant Lucentis

target: T1, recombinant human VEGF165 (Sino biological) (human, UniProt P15692-4 27-191); test: Octet red96E BLI, VEGF165 amine-coupled on AR2G sensor, antibody as analyte, 30 C
T1 construct: Sino Biological VEGF165 was used in the Octet assay
T1 sequence (P15692 other isoform, or with tags, fused parts or gaps limits assumed): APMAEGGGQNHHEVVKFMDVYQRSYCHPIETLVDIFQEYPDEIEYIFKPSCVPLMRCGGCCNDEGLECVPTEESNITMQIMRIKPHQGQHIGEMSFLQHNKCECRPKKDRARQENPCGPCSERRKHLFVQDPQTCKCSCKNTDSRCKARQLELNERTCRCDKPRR

Row | Binder | Kd | koff | kon
1 | B1 | 3.98 pM | 3.08e-06 s⁻¹ | 775000 M⁻¹ s⁻¹
2 | B2 | 4.71 pM | 3.22e-06 s⁻¹ | 685000 M⁻¹ s⁻¹
3 | B3 | 1.93 pM | 9.73e-07 s⁻¹ | 505000 M⁻¹ s⁻¹
4 | B4 | 3.98 pM | 3.08e-06 s⁻¹ | 775000 M⁻¹ s⁻¹
5 | B5 | 12.2 pM | 2.89e-06 s⁻¹ | 237000 M⁻¹ s⁻¹
